According to patent US20260078416A1, “ORTHOGONAL METABOLIC FRAMEWORK FOR ONE-CARBON UTILIZATION” (Mojia Biotech Pte. Ltd., priority 2021, published 2026):

B1: JGI15: HACS variant; GenBank HAK63664.1 (protein)
chain: MAKSEGKVNGATLMARALQQQGVQYMFGIVGFPVIPIAIAAQREGITYIGMRNEQSASYAAQAASYLTGRPQACLVVSGPGVVHALAGLANAQVNCWPMLLIGGASAIEQNGMGAFQEERQVLLASPLCKYAHQVERPERIPYYVEQAVRSALFGRPGAAYLDMPDDVILGEVEEAAVRPAATVGEPPRSLAPQENIEAALDALQSAKRPLVIVGKGMAWSRAENEVRQFIERTRLPFLATPMGKGVMPDDHPLSVGGARSHALQEADLVFLLGARFNWILHFGLPPRYSKDVRVIQLDLSAEEIGNNRQAEVALVGDGKAIVGQLNQALSSRQWFYPAETPWREAIAAKIAGNQAAVAPMIADNTSPMNYYRVYRDIAARLPRNAIIVGEGANTMDIGRTQMPNFEPRSRLDAGSYGTMGIGLGFAVAAAAVHPGRPVIAVQGDSAFGFSGMEFETAARYGMPIKVIILNNGGIGMGSPAPRDGQPGMPHALSHDARYERIAEAFGGAGFYVTDSAELGPALDAAMAFKGPAIVNIKIAATADRKPQQFNWHG
B2: JGI20: HACS variant; GenBank PWB41796.1 (protein)
chain: MGQITGAQIVARALKQQGVEYMFGIVGIPVIPIAMFAQREGIKFYGFRNEQSASYAAAAVGYLTGRPGVCLGVSGPGMIHGVAGMANAWSNCWPMILIGGANDSYQNGQGAFQEAPQIEAARPFAKYCARPDSLARLPFYVEQAVRTSIYGRPGAVYLDLPGDIITGAMEEEDVHFPPRCPDAPRMMAPQESIDAAMAALKSAERPLVIVGKGAAYSRAENEVREFLETTQLPYLASPMGKGVMPDDHPLSIAPARSAALLGADVILLMGARLNWMMHFGHPPRFDPKVRVIQMDISAEEIGTNVPTEVALVGDAKAITTQLNASLKQQPWQYPSETTWWTGLRKKIDENGATVAEMMADESVPMSYYRVYREIRDLIPNDAIIQNEGASTMDIGRTLMPNFLPRHRLDAGSFGTMGVGLGQAIAAAAVHPDKHVFCIEGDSAFGFSGMEVETAARYGMKNITFIIINNNGIGGGPDTLDPTRVPPSAYTPNAHYEKMAEIYGGKGYFVTEPSQLRPALEEAIKADKPAIVNIMISATSQRKPQQFAWLTR

Columns and labels:
[1] = system: glycolate production from formaldehyde and formate; assay: Resting-cell bioconversion pathway 2 (HACS with CaAbfT), co-feeding formaldehyde and formate; type: cell-based, E. coli
Description: We used glycolic acid (glycolate) productivity per cell density (uM glycolate/OD600) as indicator of HACS activity. Two different enzymatic routes for glycolate synthesis are explored. The first pathway (pathway 1) is similar to the pathway used for initial screening in Example 2 with addition of an extra gene, aldehyde dehydrogenase aldA from Escherichia coli (EcAldA) overexpressed to drive flux from glycolaldehyde to glycolate (FIG. 21A). In addition, HACS and LmACR-AldA are controlled under independent inducible promoters to investigate the impact of varying relative gene expressions (FIG. 21B). The second pathway (pathway 2) involves independent fluxes of formaldehyde and formyl-CoA allowing assessment of the enzyme activity with response to changing formaldehyde concentration only, while maintaining constant formyl-CoA flux. Formyl-CoA is generated by formic acid (formate) catalyzed by the acyl-CoA transferase from Clostridium aminobutyricum (CaAbfT) (FIG. 22A).
For the in vivo prototyping, we engineered vectors to independently control expression of HACS variants and the LmACR-EcAldA (pathway 1, FIG. 21A) or CaAbfT (pathway 2, FIG. 22A), with HACS under control of the IPTG-inducible T7 promoter in pCDFDuet-1 and LmACR-EcAldA or CaAbfT under control of a cumate-inducible T5 promoter in pETDuet-1 (FIG. 21B). As a host for these vectors, we used an engineered strain of E. coli based on MG1655(DE3) with knockouts for formaldehyde (ΔfrmA) and formate (ΔfdhF ΔfdnG ΔfdoG) oxidation as well as for glycolate utilization (ΔglcD)), which we expected could compete or interfere with the analysis of our pathway. […]
Cells from the above pre-cultures were then centrifuged (4000 rpm, 22° C.), washed with the above minimal media without any carbon source, and resuspended with 1 mL of above minimal media containing indicated amounts of carbon source. […] The cells were harvested after 3 hours for LmACR-EcAldA co-expression and 1 hour for CaAbfT co-expression by centrifugation and the supernatant analyzed by HPLC or GC-MS as described in EXAMPLE 2. […]

[2] = system: tartronate production from glyoxylate and formate; assay: HACS screening with glyoxylate and formate (tartronate productivity); type: cell-based, E. coli; details: 5 mM glyoxylate and 20 mM formate, first round
Description: We used 2-hydroxyacid productivity per cell density (μM/OD600) as indicator of HACS activity. 2-Hydroxyacids can be produced co-feeding various aldehydes and formic acid (formate) as carbon source in the presence of active HACS variant and acyl-CoA transferase from Clostridium aminobutyricum (CaAbfT). CaAbfT is shown to be capable of catalyzing reaction from formate to formyl-CoA (Nattermann, M., et al. ACS Catal 11 (9): 5396-5404 (2021)). HACS condenses aldehyde and formyl-CoA to form 2-hydroxyacyl-CoA, which can then be hydrolyzed to 2-hydroxyacid via native thioesterase activities (FIG. 31A).
For the in vivo prototyping, we engineered vectors to independently control expression of HACS variants and CaAbfT, with HACS under control of the IPTG-inducible T7 promoter in pCDFDuet-1 and CaAbfT under control of a cumate-inducible T5 promoter in pETDuet-1 (FIG. 31B) and transformed them into the engineered strain of E. coli described in EXAMPLE 3.
The HACS variants were screened for 2-hydroxyacid production using the high throughput screening platform as described in EXAMPLE 3 by co-feeding 5 mM aldehyde and 20 mM formate. The cells were harvested after 1 hour by centrifugation and the supernatant analyzed by HPLC (as described in EXAMPLE 2) or SoGO method.
We used tartronic acid (tartronate) productivity per cell density (uM tartronate/OD600) as indicator of HACS activity. […]

[3] = 0.5 mM formaldehyde and 20 mM formate co-fed

Row | Molecule | glycolate productivity relative to JGI20 [1, 3] [fold] | glycolate productivity relative to RuHACL [1, 3] [fold] | glycolate productivity under high formaldehyde concentration ([1]; 5 mM formaldehyde and 20 mM formate co-fed) | better tartronate productivity compared to other HACS variants [2] [%]
1 | B1 | 1.5 | 7 | – | –
2 | B2 | – | – | better glycolate productivity | 30
